Test results taken from patent US7422862B2, “Methods for identifying modulators of apoptosis” (The Burnham Institute, priority 2001, dated 2008).

Biological target: T1, GFP-Bax (Homo sapiens, UniProt Q07812)
T1 construct: expressed in transfected cells; host or cells: Cos-7
Assay: STS-induced GFP-Bax translocation to mitochondria in Cos7 cells (confocal microscopy)
Format: cell-based
Details: peptide transduced with Chariot, 1 μM STS
Description: (A-B) Humanin peptide prevents STS-induced Bax translocation in vivo. Cos-7 cells were first transfected with GFP-Bax plasmids. After 24 hrs, untagged wild-type or C8P mutant Humanin peptides were introduced into cells using ChariotTM reagent, and 2 h later cells were treated with 1 μM STS. After 4 h, the percentage of cells with translocated Bax was determined (mean±SD; n=3) by confocal microscopy (A) and representative photomicrographs (B). (C) Wild-type or C8P mutant Humanin peptides were introduced into Cos7 cells using ChariotTM reagent. Cytosolic (C) and mitochondria-containing (M) fractions were isolated by differential centrifugation 23 and analyzed by immunoblotting using anti-Bax (top), Hsp60 (middle) (mitochondrial marker), or Tubulin (bottom) (cytosol marker) antibodies. (D) HN or mutant control double-strand siRNAs were transfected into SF268 cells. After 48 h, cells were cultured without (Control) or with 0.1 uM STS. After 24 hr, cells were fractionated and analyzed by immunoblotting as above. (E) Isolated mitochondria were mixed with 400 ng Bax protein, with or without preincubating Bax with 100 uM Humanin or Humanin(C8P) peptides for 10 min. After 3 h at 30° C., mitochondria were centrifuged and the resulting pellets (P) and supernatants (S) were analyzed by immunoblotting using anti-Cytochrome c (top), Hsp60 (middle), and Bax (bottom) antibodies. […]

T1 sequence (Q07812 whole entry): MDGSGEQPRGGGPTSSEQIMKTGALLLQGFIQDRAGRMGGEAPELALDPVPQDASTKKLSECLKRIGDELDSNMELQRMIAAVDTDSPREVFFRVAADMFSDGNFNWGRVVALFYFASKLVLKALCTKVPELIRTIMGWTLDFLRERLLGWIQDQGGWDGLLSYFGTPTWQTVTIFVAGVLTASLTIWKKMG

Humanin: 24 amino acid polypeptide, cytosolic form of human Humanin (SEQ ID NO:2); used as synthetic peptide or expressed fusion
suppression of GFP-Bax translocation: about half
